Columns and labels:
Type in all cases: biochemical
MLCK = target: T1, MLCK (Homo sapiens, UniProt Q9H1R3); assay: Millipore radiometric kinase activity assay, MLCK (h); details: for MLCK Kinase Activity: peptide inhibitor 300 μM, SD of 2 samples
T1 construct: purchased Millipore (radiometric assay service)
Method: (§1) A commercial radiometric assay service (Millipore, Billerica, Mass.) was used to test the specificity and potency of peptides containing a coupled transduction domain and therapeutic domain, hereinafter “complete peptides”). In these assays, if the kinase is not inhibited by an inhibitor peptide, a positively charged substrate is phosphorylated with a radiolabeled phosphate group from an ATP.
In a final reaction volume of 25 μL, MLCK (h) (5-10 mU) is incubated with 8 mM MOPS pH 7.0, 0.2 mM EDTA, 0.5 mM CaCl2, 16 μg/mL calmodulin, 250 μM […] [SEQ ID NO: 52], 10 mM MgAcetate and [γ-^33P-ATP] (specific activity approx. 500 cpm/pmol, concentration as required). The reaction is initiated by the addition of the MgATP mix. After incubation for 40 minutes at room temperature, the reaction is stopped by the addition of 5 μL of a 3% phosphoric acid solution. 10 μL of the reaction is then spotted onto a P30 filtermat and washed three times for 5 minutes in 75 mM phosphoric acid and once in methanol prior to drying and scintillation counting.
(§2) IC50 values for inhibitor peptides were determined using Millipore's IC50Profiler Express service. The IC50 value was estimated from a 10-point curve of one-half log dilutions. For peptides tested for specificity, the concentration of the peptides that inhibited approximately 95% of MK2 activity was chosen to profile against a battery of kinases related to MK2, cell viability, or human disease from MilliporeKinaseProfiler service. In both assays, compounds were supplied in dimethylsulfoxide (DMSO). Every kinase activity measurement was conducted in duplicate.
(§3) Therapeutic inhibitor peptides were assayed for activity against human kinases related to MK2, cell viability, or human disease. The assays were performed using concentrations of therapeutic inhibitor peptides that yielded 2% to 8% of normal MK2 activity. Error is reported as the standard deviation between 2 samples, and “c” is rat AMPK whereas all other kinases used are human kinases.
(§4) Additional therapeutic inhibitor peptide variants were assayed for activity against several human kinases representative of several families of kinases. These kinases included: MK2; MK3; CaMKI (calcium/calmodulin-dependent protein kinase); PRAK (p38 regulated/activated protein kinase, also known as mitogen-activated protein kinase activated protein kinase 5 (MAPKAPK5)); SAPK2a (p38α); IRAK4 (IL-1 receptor (IL-1R)-associated kinase); MLCK (myosin light chain kinase); PKBβ (protein kinase B); PCKδ (protein kinase C); and ROCK-I (Rho-associated serine/threonine kinase).

MK2 = MK2 (Homo sapiens, UniProt P49137); assay: Millipore radiometric IC50 and kinase activity assay, MK2; design: purchased Millipore (assay service); details: for MK2 Kinase Activity: SD of 2 samples
Chain of MK2 (P49137 whole entry): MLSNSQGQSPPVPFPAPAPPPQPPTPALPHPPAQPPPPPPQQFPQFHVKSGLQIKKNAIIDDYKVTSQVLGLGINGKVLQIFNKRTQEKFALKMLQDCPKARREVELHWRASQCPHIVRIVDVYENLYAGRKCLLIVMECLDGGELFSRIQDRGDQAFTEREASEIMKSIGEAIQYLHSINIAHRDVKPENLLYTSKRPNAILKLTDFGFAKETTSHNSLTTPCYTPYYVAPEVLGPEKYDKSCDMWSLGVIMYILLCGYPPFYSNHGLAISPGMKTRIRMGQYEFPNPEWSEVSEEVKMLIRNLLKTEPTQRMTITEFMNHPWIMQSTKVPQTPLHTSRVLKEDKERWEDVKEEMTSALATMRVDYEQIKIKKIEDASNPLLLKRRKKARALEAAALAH
Method: as §1, §2, §3, §4

MK3 = target: T2, MK3 (Homo sapiens, UniProt Q16644); assay: Millipore radiometric kinase activity assay, MK3; details: SD of 2 samples
T2 construct: purchased Millipore (assay service)
T2 sequence (Q16644 whole entry): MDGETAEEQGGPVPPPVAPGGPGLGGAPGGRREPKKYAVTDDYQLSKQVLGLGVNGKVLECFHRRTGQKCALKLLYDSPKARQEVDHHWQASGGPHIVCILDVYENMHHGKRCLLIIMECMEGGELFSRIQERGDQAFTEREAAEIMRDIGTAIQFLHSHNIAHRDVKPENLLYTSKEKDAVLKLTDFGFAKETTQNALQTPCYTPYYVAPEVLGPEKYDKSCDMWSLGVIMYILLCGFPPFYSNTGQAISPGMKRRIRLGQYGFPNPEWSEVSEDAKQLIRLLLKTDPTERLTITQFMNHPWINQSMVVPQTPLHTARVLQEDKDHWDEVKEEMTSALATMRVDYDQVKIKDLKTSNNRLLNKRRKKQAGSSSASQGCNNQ
Method: as §1, §2, §4

PRAK = target: T3, PRAK (Homo sapiens, UniProt Q8IW41); assay: Millipore radiometric kinase activity assay, PRAK (h); details: SD of 2 samples
T3 construct: purchased Millipore (assay service)
T3 sequence (Q8IW41 1-473): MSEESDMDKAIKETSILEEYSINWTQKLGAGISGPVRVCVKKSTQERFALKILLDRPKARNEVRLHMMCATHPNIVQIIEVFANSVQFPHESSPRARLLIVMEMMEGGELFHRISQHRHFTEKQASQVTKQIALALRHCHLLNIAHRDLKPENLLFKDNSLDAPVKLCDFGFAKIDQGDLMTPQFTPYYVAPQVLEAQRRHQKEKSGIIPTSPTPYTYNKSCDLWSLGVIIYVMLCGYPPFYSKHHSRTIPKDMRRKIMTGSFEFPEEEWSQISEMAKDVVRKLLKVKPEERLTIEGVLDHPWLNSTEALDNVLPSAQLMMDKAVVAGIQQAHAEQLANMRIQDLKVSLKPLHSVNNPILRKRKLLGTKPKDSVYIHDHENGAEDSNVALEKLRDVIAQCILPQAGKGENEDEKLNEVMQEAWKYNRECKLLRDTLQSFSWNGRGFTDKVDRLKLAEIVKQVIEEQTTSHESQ
Method: as §1
In a final reaction volume of 25 μL, PRAK (h) (5-10 mU) is incubated with 50 mM Naβ-glycerophosphate pH 7.5, 0.1 mM EGTA, 30 μM […] [SEQ ID NO: 65], 10 mM MgAcetate and [γ-^33P-ATP] (specific activity approx. 500 cpm/pmol, concentration as required). The reaction is initiated by the addition of the MgATP mix. After incubation for 40 minutes at room temperature, the reaction is stopped by the addition of 5 μL of a 3% phosphoric acid solution. 10 μL of the reaction is then spotted onto a P30 filtermat and washed three times for 5 minutes in 50 mM phosphoric acid and once in methanol prior to drying and scintillation counting.
as §2, §4

EphA2 = target: T4, EphA2 (Homo sapiens, UniProt P29317); assay: Millipore radiometric kinase activity assay, EphA2 (h)
T4 construct: purchased Millipore (assay service)
T4 sequence (P29317 24-976): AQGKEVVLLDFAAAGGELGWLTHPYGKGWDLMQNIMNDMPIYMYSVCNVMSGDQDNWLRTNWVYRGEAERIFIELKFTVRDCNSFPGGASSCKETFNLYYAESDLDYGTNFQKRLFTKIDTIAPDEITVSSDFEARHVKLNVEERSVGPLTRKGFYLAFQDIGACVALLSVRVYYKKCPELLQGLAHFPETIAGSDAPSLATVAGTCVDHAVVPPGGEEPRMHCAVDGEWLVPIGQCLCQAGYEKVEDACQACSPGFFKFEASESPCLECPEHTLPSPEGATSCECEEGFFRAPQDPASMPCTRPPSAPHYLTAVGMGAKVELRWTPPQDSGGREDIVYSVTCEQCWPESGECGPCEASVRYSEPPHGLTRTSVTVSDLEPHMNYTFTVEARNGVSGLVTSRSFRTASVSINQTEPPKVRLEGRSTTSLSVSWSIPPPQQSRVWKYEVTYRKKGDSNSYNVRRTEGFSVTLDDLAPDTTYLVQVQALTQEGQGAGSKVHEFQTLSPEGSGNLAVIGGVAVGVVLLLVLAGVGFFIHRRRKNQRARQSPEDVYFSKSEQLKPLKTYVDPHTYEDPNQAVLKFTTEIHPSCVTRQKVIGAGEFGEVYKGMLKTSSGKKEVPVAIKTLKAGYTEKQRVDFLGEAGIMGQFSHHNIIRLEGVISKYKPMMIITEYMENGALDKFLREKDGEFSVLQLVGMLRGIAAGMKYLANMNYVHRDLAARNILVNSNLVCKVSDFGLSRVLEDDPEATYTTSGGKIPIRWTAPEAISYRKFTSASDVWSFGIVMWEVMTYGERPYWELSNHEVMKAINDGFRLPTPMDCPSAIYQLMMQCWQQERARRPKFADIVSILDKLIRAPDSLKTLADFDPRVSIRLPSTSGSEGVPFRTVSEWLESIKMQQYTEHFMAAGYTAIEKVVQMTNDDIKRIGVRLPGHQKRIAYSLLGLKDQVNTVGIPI
Method: as §1
In a final reaction volume of 25 μL, EphA2 (h) (5-10 mU) is incubated with 8 mM MOPS pH 7.0, 0.2 mM EDTA, 0.1 mg/mL poly(Glu, Tyr) 4:1, 10 mM MgAcetate and [γ-^33P-ATP] (specific activity approx. 500 cpm/pmol, concentration as required). The reaction is initiated by the addition of the MgATP mix. After incubation for 40 minutes at room temperature, the reaction is stopped by the addition of 5 μL of a 3% phosphoric acid solution. 10 μL of the reaction is then spotted onto a Filtermat A and washed three times for 5 minutes in 75 mM phosphoric acid and once in methanol prior to drying and scintillation counting.
as §2, §3

SAPK2a (p38α) = target: T5, SAPK2a (p38α) (Homo sapiens, UniProt Q16539); assay: Millipore radiometric kinase activity assay, SAPK2a (h); details: for SAPK2a (p38α) Kinase Activity: peptide inhibitor 300 μM, SD of 2 samples
T5 construct: purchased Millipore (radiometric assay service)
T5 sequence (Q16539 whole entry): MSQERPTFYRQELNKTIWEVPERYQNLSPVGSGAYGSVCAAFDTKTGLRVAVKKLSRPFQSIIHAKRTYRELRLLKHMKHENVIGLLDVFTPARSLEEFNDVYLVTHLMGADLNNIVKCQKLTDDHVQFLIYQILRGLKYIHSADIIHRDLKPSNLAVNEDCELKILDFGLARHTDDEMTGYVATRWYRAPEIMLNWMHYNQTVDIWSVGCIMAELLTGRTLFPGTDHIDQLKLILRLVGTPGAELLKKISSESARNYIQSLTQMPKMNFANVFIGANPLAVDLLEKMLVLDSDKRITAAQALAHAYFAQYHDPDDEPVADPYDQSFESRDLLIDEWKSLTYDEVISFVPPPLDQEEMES
Method: as §1
In a final reaction volume of 25 μL, SAPK2a (h) (5-10 mU) is incubated with 25 mM Tris pH 7.5, 0.02 mM EGTA, 0.33 mg/mL myelin basic protein, 10 mM MgAcetate and [γ-^33P-ATP] (specific activity approx. 500 cpm/pmol, concentration as required). The reaction is initiated by the addition of the MgATP mix. After incubation for 40 minutes at room temperature, the reaction is stopped by the addition of 5 μL of a 3% phosphoric acid solution. 10 μL of the reaction is then spotted onto a P30 filtermat and washed three times for 5 minutes in 75 mM phosphoric acid and once in methanol prior to drying and scintillation counting.
as §2, §3, §4

[1] = peptide 30 μM, listed as WLRRIKAWLRRI-
[2] = peptide 100 μM, listed as KAFAKLAARLYRLARQLGVAA

Row | Sequence | MLCK Kinase Activity (%) (+SD %) (MLCK; peptide 100 μM) | EphA2 Kinase Activity (%) (+SD %) (EphA2; peptide 100 μM) | SAPK2a Kinase Activity (%) (+SD %) (SAPK2a (p38α); peptide 100 μM) | MLCK Kinase Activity (MLCK) | MK2 Kinase Activity (MK2; peptide inhibitor 300 μM) | MK3 Kinase Activity (MK3; peptide inhibitor 300 μM) | PRAK Kinase Activity (PRAK; peptide inhibitor 300 μM) | SAPK2a (p38α) Kinase Activity (SAPK2a (p38α)) | MK2 Kinase Activity (MK2; peptide inhibitor 100 μM) | MK3 Kinase Activity (MK3; peptide inhibitor 100 μM) | PRAK Kinase Activity (PRAK; peptide inhibitor 100 μM) | further results
1 | WLRRIKAWLRRIKALNRQLGVAA | 1 (1) % | 32 (2) % | 30 (6) % | – | – | – | – | – | – | – | – | MLCK Kinase Activity (%) (+SD %) (MLCK; peptide 30 μM): 4(1) %; MLCK Kinase Activity (%) (+SD %) (MLCK; [1]): 4 (1) %; MK2 Kinase Activity (MK2; peptide inhibitor 30 μM): 2(1) %; fold lower IC50 than the therapeutic inhibitor peptide incorporating PTD YARAAARQARA (FIG. 2) (MK2; same therapeutic domain KALNRQLGVAA): greater than 30 fold; MK3 Kinase Activity (MK3; peptide inhibitor 30 μM): 16(2) %; PRAK Kinase Activity (PRAK; peptide inhibitor 30 μM): 67(9) %; EphA2 Kinase Activity (%) (+SD %) (EphA2; peptide 30 μM): 38 (4) %; SAPK2a Kinase Activity (%) (+SD %) (SAPK2a (p38α); peptide 30 μM): 61(7) %; SAPK2a Kinase Activity (%) (+SD %) (SAPK2a (p38α); [1]): 61 (7) %
2 | YARAAARQARAKALARQLGVAA | – | – | – | 9(0) % | −7(0) % | 5(1) % | 86(2) % | 66(3) % | – | – | – | –
3 | YARAAARQARAKALNRQLGVAA | – | – | – | 66(9) % | 10(3) % | 19(3) % | 81(3) % | 100(6) % | – | – | – | –
4 | KAFAKLAARLYRKALARQLGVAA | 2 (0) % | 22 (7) % | 59 (8) % | – | – | – | – | – | 8(1) % | 17(1) % | 148(4) % | MLCK Kinase Activity (%) (+SD %) (MLCK; [2]): 2(0) %; SAPK2a Kinase Activity (%) (+SD %) (SAPK2a (p38α); [2]): 59(8) %
5 | FAKLAARLYRKALARQLGVAA | 1(1) % | – | 30(6) % | – | – | – | – | – | 5(2) % | 10(1) % | 131(4) % | inhibition of SAPK2a activity (in words) (SAPK2a (p38α); Table 5, 100 μM): inhibited activity of SAPK2a
